Test [1] has as its target T1, SEZ6L-Fc protein (human, UniProt Q9BYH1 29-958, limits assumed).
T1 construct: The construct is not described beyond its name; also called SEZ6L protein; Human SEZ6L1; not shown: Fc
T1 sequence (looked up): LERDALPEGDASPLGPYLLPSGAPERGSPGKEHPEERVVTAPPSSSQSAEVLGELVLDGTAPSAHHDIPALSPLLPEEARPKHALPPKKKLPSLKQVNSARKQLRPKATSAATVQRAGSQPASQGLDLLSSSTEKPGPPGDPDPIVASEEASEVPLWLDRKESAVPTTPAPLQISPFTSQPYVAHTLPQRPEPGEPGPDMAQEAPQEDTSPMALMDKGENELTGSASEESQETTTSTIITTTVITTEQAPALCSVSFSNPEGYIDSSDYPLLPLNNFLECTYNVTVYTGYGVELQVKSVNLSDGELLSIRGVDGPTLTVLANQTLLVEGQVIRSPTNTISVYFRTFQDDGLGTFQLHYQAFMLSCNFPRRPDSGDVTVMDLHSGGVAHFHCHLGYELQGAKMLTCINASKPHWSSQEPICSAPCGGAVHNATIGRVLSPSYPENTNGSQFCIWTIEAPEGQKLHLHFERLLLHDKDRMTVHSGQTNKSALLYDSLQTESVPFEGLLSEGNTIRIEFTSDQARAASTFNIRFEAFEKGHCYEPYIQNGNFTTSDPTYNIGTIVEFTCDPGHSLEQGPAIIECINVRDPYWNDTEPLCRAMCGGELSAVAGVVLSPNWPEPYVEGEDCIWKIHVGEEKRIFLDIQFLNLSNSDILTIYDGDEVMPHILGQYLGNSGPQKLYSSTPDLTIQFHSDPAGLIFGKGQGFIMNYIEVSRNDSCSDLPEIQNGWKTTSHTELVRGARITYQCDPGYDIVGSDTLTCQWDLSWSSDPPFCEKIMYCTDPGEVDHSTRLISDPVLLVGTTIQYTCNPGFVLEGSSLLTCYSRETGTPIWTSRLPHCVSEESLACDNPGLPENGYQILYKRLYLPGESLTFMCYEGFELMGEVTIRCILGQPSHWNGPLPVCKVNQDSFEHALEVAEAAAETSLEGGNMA
The test can be described thus: ELISA, coated Fc fusion protein at 1 ug/mL.

Test [2] concerns the target T2, SEZ6L2-Fc (human, UniProt Q6UXD5 28-844, limits assumed).
T2 construct: The construct is not described beyond its name; also called SEZ6L2 protein; Human SEZ6L2; not shown: Fc
The test can be described thus: ELISA, coated Fc fusion protein at 1 ug/mL.

T2 sequence (Q6UXD5 28-844 limits assumed): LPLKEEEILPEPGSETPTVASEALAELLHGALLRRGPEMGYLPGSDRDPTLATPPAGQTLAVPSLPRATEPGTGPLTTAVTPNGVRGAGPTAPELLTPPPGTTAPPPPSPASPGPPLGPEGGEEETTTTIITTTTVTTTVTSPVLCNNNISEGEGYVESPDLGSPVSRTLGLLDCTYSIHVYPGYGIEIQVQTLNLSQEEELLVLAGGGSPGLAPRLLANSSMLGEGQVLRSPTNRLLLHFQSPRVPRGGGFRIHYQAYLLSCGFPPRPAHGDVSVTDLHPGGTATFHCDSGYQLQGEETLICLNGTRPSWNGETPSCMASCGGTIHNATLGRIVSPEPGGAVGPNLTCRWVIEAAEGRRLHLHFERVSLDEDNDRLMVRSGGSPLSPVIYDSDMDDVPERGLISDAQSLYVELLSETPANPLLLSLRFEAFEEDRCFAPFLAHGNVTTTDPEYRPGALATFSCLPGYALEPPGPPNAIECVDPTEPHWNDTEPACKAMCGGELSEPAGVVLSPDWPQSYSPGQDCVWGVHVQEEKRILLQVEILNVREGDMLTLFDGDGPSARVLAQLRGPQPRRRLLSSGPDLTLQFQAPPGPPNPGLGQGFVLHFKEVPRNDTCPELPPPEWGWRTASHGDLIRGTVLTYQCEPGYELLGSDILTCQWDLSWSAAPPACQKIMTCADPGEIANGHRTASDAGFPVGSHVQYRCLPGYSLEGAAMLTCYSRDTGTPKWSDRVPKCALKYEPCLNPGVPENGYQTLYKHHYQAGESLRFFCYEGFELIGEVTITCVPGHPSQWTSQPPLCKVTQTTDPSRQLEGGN

B1: PR3178 (antibody, human IgG1, kappa, V domains shown)
VH: QVQLVQSGAEVKKPGASVKVSCKASGYTFTDYEMHWVRQAPGQGLEWMGGIDPESDNTVYNQKFKGRVTLTEDTSTSTAYMELRSLRSEDTAVYYCTRGDWYFDVWGQGTTVTVSS
VL: DIVMTQSPDSLAVSLGERATINCKSSQSLLNSRTRENYLAWYQQKPGQPPKLLIYWASTRESGVPDRFSGSGSGTDFTLTISSLQAEDVAVYYCGQSYNLFTFGQGTKLEIKR
notes: Humanized, human IgG1, kappa; also called humanized antibody of cAb3009
As for B1, the binding result in test [1] and in test [2] was “no binding (tested: 10 nM)” throughout.
